This note sets out measurements from patent publication US20220306695A1, “COMPSTATIN ANALOGUES AND THEIR MEDICAL USES” (priority 2019, published 2022).

Starred links: 1 amine or outer side, 2 acyl side, 3 side chain; linkers in the order of their positions; H or OH if unused. Positions of bridges follow the written chain, without caps; N, C: chain ends. Non-standard residues stand in square brackets, D forms with d. Groups on a side chain read outwards from the residue. *: point of attachment. Trp(1-Me) = Cn1cc(C[C@H](N)C(=O)O)c2ccccc21; C18 diacid = O=C(O)CCCCCCCCCCCCCCCCC(=O)*; C16 diacid = O=C(O)CCCCCCCCCCCCCCC(=O)*; γGlu = O=C(O)[C@H](CCC(=O)[*:2])N[*:1]; hCys = N[C@@H](CCS)C(=O)O; AEEA = NCCOCCOCC(=O)O; Sar = CNCC(=O)O

B1: Compound 155 (peptide)
peptide: Ac-GEFAI[Trp(1-Me)]QEWGEHR[hCys][Sar]EGE[AEEA]ESK([γGlu-Gly-γGlu-C18 diacid])-NH2
modifications: thioether 4-14
SMILES: CC[C@H](C)[C@@H]1NC(=O)[C@@H](NC(=O)[C@H](Cc2ccccc2)NC(=O)[C@H](CCC(=O)O)NC(=O)CNC(C)=O)CSCC[C@@H](C(=O)N(C)CC(=O)N[C@@H](CCC(=O)O)C(=O)NCC(=O)N[C@@H](CCC(=O)O)C(=O)NCCOCCOCC(=O)N[C@@H](CCC(=O)O)C(=O)N[C@@H](CO)C(=O)N[C@@H](CCCCNC(=O)CC[C@H](NC(=O)CNC(=O)CC[C@H](NC(=O)CCCCCCCCCCCCCCCCC(=O)O)C(=O)O)C(=O)O)C(N)=O)NC(=O)[C@H](CCCNC(=N)N)NC(=O)[C@H](Cc2c[nH]cn2)NC(=O)[C@H](CCC(=O)O)NC(=O)CNC(=O)[C@H](Cc2c[nH]c3ccccc23)NC(=O)[C@H](CCC(=O)O)NC(=O)[C@H](CCC(N)=O)NC(=O)[C@H](Cc2cn(C)c3ccccc23)NC1=O
B2: Compound 156 (peptide)
peptide: Ac-SEFAI[Trp(1-Me)]QDWGEHR[hCys]TEGE[AEEA][AEEA]K([γGlu-Gly-γGlu-C18 diacid])-NH2
modifications: thioether 4-14
SMILES: CC[C@H](C)[C@@H]1NC(=O)[C@@H](NC(=O)[C@H](Cc2ccccc2)NC(=O)[C@H](CCC(=O)O)NC(=O)[C@H](CO)NC(C)=O)CSCC[C@@H](C(=O)N[C@H](C(=O)N[C@@H](CCC(=O)O)C(=O)NCC(=O)N[C@@H](CCC(=O)O)C(=O)NCCOCCOCC(=O)NCCOCCOCC(=O)N[C@@H](CCCCNC(=O)CC[C@H](NC(=O)CNC(=O)CC[C@H](NC(=O)CCCCCCCCCCCCCCCCC(=O)O)C(=O)O)C(=O)O)C(N)=O)[C@@H](C)O)NC(=O)[C@H](CCCNC(=N)N)NC(=O)[C@H](Cc2c[nH]cn2)NC(=O)[C@H](CCC(=O)O)NC(=O)CNC(=O)[C@H](Cc2c[nH]c3ccccc23)NC(=O)[C@H](CC(=O)O)NC(=O)[C@H](CCC(N)=O)NC(=O)[C@H](Cc2cn(C)c3ccccc23)NC1=O
B3: Compound 158 (peptide)
peptide: Ac-EFAI[Trp(1-Me)]QEWGEHR[hCys][Sar]EA[AEEA][AEEA]K([γGlu-Gly-γGlu-C18 diacid])-NH2
modifications: thioether 3-13
SMILES: CC[C@H](C)[C@@H]1NC(=O)[C@@H](NC(=O)[C@H](Cc2ccccc2)NC(=O)[C@H](CCC(=O)O)NC(C)=O)CSCC[C@@H](C(=O)N(C)CC(=O)N[C@@H](CCC(=O)O)C(=O)N[C@@H](C)C(=O)NCCOCCOCC(=O)NCCOCCOCC(=O)N[C@@H](CCCCNC(=O)CC[C@H](NC(=O)CNC(=O)CC[C@H](NC(=O)CCCCCCCCCCCCCCCCC(=O)O)C(=O)O)C(=O)O)C(N)=O)NC(=O)[C@H](CCCNC(=N)N)NC(=O)[C@H](Cc2c[nH]cn2)NC(=O)[C@H](CCC(=O)O)NC(=O)CNC(=O)[C@H](Cc2c[nH]c3ccccc23)NC(=O)[C@H](CCC(=O)O)NC(=O)[C@H](CCC(N)=O)NC(=O)[C@H](Cc2cn(C)c3ccccc23)NC1=O
B4: Compound 40 (peptide)
peptide: Ac-GSAICIWQDWGEHRC[Sar]E-NH2
modifications: disulfide 5-15
SMILES: CC[C@H](C)[C@H](NC(=O)[C@H](C)NC(=O)[C@H](CO)NC(=O)CNC(C)=O)C(=O)N[C@H]1CSSC[C@@H](C(=O)N(C)CC(=O)N[C@@H](CCC(=O)O)C(N)=O)NC(=O)[C@H](CCCNC(=N)N)NC(=O)[C@H](Cc2c[nH]cn2)NC(=O)[C@H](CCC(=O)O)NC(=O)CNC(=O)[C@H](Cc2c[nH]c3ccccc23)NC(=O)[C@H](CC(=O)O)NC(=O)[C@H](CCC(N)=O)NC(=O)[C@H](Cc2c[nH]c3ccccc23)NC(=O)[C@H]([C@@H](C)CC)NC1=O
B5: Compound 11 (peptide)
peptide: Ac-[Sar]CIWQDWGEHRCT-NH2
modifications: disulfide 2-12
SMILES: CC[C@H](C)[C@@H]1NC(=O)[C@@H](NC(=O)CN(C)C(C)=O)CSSC[C@@H](C(=O)N[C@H](C(N)=O)[C@@H](C)O)NC(=O)[C@H](CCCNC(=N)N)NC(=O)[C@H](Cc2c[nH]cn2)NC(=O)[C@H](CCC(=O)O)NC(=O)CNC(=O)[C@H](Cc2c[nH]c3ccccc23)NC(=O)[C@H](CC(=O)O)NC(=O)[C@H](CCC(N)=O)NC(=O)[C@H](Cc2c[nH]c3ccccc23)NC1=O
B6: Ac-IC(1)X…(1)T-NH2 with Leucine at position 3 (peptide)
peptide: Ac-ICLWQDWGEHRCT-NH2
modifications: disulfide 2-12
SMILES: CC[C@H](C)[C@H](NC(C)=O)C(=O)N[C@H]1CSSC[C@@H](C(=O)N[C@H](C(N)=O)[C@@H](C)O)NC(=O)[C@H](CCCNC(=N)N)NC(=O)[C@H](Cc2c[nH]cn2)NC(=O)[C@H](CCC(=O)O)NC(=O)CNC(=O)[C@H](Cc2c[nH]c3ccccc23)NC(=O)[C@H](CC(=O)O)NC(=O)[C@H](CCC(N)=O)NC(=O)[C@H](Cc2c[nH]c3ccccc23)NC(=O)[C@H](CC(C)C)NC1=O
B7: Compound 145 (peptide)
peptide: Ac-EFCI[Trp(1-Me)]QDWGEHRC[Sar]EA[AEEA][AEEA]K([γGlu-Gly-γGlu-C18 diacid])-NH2
modifications: disulfide 3-13
SMILES: CC[C@H](C)[C@@H]1NC(=O)[C@@H](NC(=O)[C@H](Cc2ccccc2)NC(=O)[C@H](CCC(=O)O)NC(C)=O)CSSC[C@@H](C(=O)N(C)CC(=O)N[C@@H](CCC(=O)O)C(=O)N[C@@H](C)C(=O)NCCOCCOCC(=O)NCCOCCOCC(=O)N[C@@H](CCCCNC(=O)CC[C@H](NC(=O)CNC(=O)CC[C@H](NC(=O)CCCCCCCCCCCCCCCCC(=O)O)C(=O)O)C(=O)O)C(N)=O)NC(=O)[C@H](CCCNC(=N)N)NC(=O)[C@H](Cc2c[nH]cn2)NC(=O)[C@H](CCC(=O)O)NC(=O)CNC(=O)[C@H](Cc2c[nH]c3ccccc23)NC(=O)[C@H](CC(=O)O)NC(=O)[C@H](CCC(N)=O)NC(=O)[C@H](Cc2cn(C)c3ccccc23)NC1=O
B8: Ac-IC(1)X…(1)T-NH2 with Phenylalanine at position 3 (peptide)
peptide: Ac-ICFWQDWGEHRCT-NH2
modifications: disulfide 2-12
SMILES: CC[C@H](C)[C@H](NC(C)=O)C(=O)N[C@H]1CSSC[C@@H](C(=O)N[C@H](C(N)=O)[C@@H](C)O)NC(=O)[C@H](CCCNC(=N)N)NC(=O)[C@H](Cc2c[nH]cn2)NC(=O)[C@H](CCC(=O)O)NC(=O)CNC(=O)[C@H](Cc2c[nH]c3ccccc23)NC(=O)[C@H](CC(=O)O)NC(=O)[C@H](CCC(N)=O)NC(=O)[C@H](Cc2c[nH]c3ccccc23)NC(=O)[C@H](Cc2ccccc2)NC1=O
B9: Compound 159 (peptide)
peptide: EGSAYAIWQDWGEHRCGEKEK
modifications: not fully specified; N-acetyl; C-terminal amide; delta-cystathionine (Ctt2) thioether bridge A6-hCys16 (hCys written C); W8 is 1-Me-Trp; G17 is Sar; E20 is γGlu; K21 side chain bears [17-carboxy-heptadecanoyl][γGlu][Peg3][Peg3]
B10: Compound 143 (peptide)
peptide: Ac-SEFCI[Trp(1-Me)]QDWGEHRC[Sar]EGE[AEEA][AEEA][AEEA]K([γGlu-Gly-γGlu-C18 diacid])-NH2
modifications: disulfide 4-14
SMILES: CC[C@H](C)[C@@H]1NC(=O)[C@@H](NC(=O)[C@H](Cc2ccccc2)NC(=O)[C@H](CCC(=O)O)NC(=O)[C@H](CO)NC(C)=O)CSSC[C@@H](C(=O)N(C)CC(=O)N[C@@H](CCC(=O)O)C(=O)NCC(=O)N[C@@H](CCC(=O)O)C(=O)NCCOCCOCC(=O)NCCOCCOCC(=O)NCCOCCOCC(=O)N[C@@H](CCCCNC(=O)CC[C@H](NC(=O)CNC(=O)CC[C@H](NC(=O)CCCCCCCCCCCCCCCCC(=O)O)C(=O)O)C(=O)O)C(N)=O)NC(=O)[C@H](CCCNC(=N)N)NC(=O)[C@H](Cc2c[nH]cn2)NC(=O)[C@H](CCC(=O)O)NC(=O)CNC(=O)[C@H](Cc2c[nH]c3ccccc23)NC(=O)[C@H](CC(=O)O)NC(=O)[C@H](CCC(N)=O)NC(=O)[C@H](Cc2cn(C)c3ccccc23)NC1=O

The target in the test is Human C3 (human, UniProt P01024 23-1663). As to the kind of experiment: cell-based or functional assay.
Chain of Human C3 (P01024 23-1663 limits assumed): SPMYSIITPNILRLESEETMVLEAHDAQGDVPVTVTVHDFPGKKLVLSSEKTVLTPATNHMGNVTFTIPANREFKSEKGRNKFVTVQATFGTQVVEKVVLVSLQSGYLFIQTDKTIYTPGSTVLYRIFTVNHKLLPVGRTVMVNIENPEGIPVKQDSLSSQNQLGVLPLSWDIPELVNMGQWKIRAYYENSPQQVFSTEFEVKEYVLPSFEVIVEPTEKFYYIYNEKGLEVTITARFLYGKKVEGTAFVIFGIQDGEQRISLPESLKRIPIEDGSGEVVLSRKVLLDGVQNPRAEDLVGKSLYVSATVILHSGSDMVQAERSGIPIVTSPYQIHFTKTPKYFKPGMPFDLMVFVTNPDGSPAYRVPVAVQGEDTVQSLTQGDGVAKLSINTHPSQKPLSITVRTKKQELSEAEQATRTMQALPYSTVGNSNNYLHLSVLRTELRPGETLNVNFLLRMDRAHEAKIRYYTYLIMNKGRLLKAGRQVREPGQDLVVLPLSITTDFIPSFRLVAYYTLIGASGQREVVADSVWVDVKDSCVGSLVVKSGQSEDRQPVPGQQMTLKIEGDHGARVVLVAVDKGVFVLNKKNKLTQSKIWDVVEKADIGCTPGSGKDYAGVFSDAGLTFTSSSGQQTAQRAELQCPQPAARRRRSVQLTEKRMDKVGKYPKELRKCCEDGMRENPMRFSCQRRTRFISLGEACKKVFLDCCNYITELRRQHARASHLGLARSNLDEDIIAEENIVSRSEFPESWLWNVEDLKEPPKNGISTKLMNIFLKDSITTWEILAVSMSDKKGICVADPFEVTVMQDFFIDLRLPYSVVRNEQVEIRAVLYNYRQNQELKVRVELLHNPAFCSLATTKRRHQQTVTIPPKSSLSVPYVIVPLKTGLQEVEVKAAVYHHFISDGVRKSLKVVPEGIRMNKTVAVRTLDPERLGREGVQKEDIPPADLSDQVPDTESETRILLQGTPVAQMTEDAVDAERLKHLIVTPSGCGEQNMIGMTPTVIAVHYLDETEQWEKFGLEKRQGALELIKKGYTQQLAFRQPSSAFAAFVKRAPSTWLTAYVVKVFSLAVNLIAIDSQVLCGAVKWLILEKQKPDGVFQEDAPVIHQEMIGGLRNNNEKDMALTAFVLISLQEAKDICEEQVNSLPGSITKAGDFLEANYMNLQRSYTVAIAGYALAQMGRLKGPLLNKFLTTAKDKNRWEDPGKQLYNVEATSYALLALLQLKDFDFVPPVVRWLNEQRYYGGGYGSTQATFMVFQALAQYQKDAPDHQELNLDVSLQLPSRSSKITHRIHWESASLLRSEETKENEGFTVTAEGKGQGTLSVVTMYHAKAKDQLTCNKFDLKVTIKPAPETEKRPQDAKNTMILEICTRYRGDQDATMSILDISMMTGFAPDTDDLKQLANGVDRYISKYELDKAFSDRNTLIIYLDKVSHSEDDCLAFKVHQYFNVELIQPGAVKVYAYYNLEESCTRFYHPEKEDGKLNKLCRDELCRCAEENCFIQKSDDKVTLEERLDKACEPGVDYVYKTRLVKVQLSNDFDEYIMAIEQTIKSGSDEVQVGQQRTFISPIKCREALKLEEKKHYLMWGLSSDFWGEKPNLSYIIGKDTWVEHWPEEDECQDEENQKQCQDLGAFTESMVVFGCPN
In turn, B1 came in with an IC50[nM], inhibition of hemolysis of less than 100 nM. In the case of B2, the IC50[nM], inhibition of hemolysis was less than 100 nM.

As for Ac-SEFCI[Trp(1-Me)]QDWGEHRCTEGE[8‑aminooctanoyl]K([γGlu-Gly-γGlu-C18 diacid])-NH2 (disulfide 4-14) [Compound 136], the IC50[nM], inhibition of hemolysis was less than 100 nM.

B3 came in with an IC50[nM], inhibition of hemolysis of less than 250 nM.

On to Ac-SEFCI[Trp(1-Me)]QDWGEHRCTGAESK([γGlu-Gly-γGlu-15‑carboxy‑hexadecanoyl])-NH2 (disulfide 4-14) [Compound 135], for which the IC50[nM], inhibition of hemolysis was less than 100 nM.

Take B4: the IC50[nM], inhibition of hemolysis is less than 250 nM. Turning to Ac-SEFAI[Trp(1-Me)]QDWGEHR[hCys][Sar]EGE[AEEA][AEEA]K([γGlu-Gly-γGlu-C16 diacid])-NH2 (thioether 4-14) [Compound 160], the IC50[nM], inhibition of hemolysis is less than 100 nM.

B5 had an IC50[nM], inhibition of hemolysis of less than 100 nM.

Ac-SEFCI[Trp(1-Me)]QDWGEHRC[Sar]EGE[AEEA]K([γGlu-Gly-γGlu-C18 diacid])-NH2 (disulfide 4-14) [Compound 138] yielded an IC50[nM], inhibition of hemolysis of less than 100 nM. The molecule B6 returned an IC50, CP hemolysis of 500 nM.

In turn, Ac-SEFAI[Trp(1-Me)]QDWGEHR[hCys]TEGE[AEEA]ESK([γGlu-C18 diacid])-OH (thioether 4-14) [Compound 163] returned an IC50[nM], inhibition of hemolysis of less than 100 nM.

Molecule Ac-SEFCI[Trp(1-Me)]QDWGEHRCTEGE[8‑aminooctanoyl]EK([γGlu-Gly-γGlu-C18 diacid])-NH2 (disulfide 4-14) [Compound 137] gave an IC50[nM], inhibition of hemolysis of less than 100 nM.

B7: the IC50[nM], inhibition of hemolysis was less than 100 nM.

B8 displayed an IC50, CP hemolysis of more than 10000 nM. In turn, Ac-SEFAI[Trp(1-Me)]QDW[Sar]EHR[hCys][Sar]E[AEEA][AEEA]K([γGlu-Gly-γGlu-C18 diacid])-OH (thioether 4-14) [Compound 162] yielded an IC50[nM], inhibition of hemolysis of less than 100 nM.

Molecule B9 returned an IC50[nM], inhibition of hemolysis of less than 100 nM.

Turning to B10, the IC50[nM], inhibition of hemolysis was less than 100 nM.
